Data on 3 molecules can be found in patent US20260242489A1 (HUAHUI HEALTH, published 2026).

Like-named read-outs stand apart in the source and are kept apart here.

In experiment [1] the target is T1, hEGFR ECR-His6-Avi-Biotin (human, UniProt P00533 25-642, biotinylated on the Avi tag using BirA ligase).
T1 construct: also called WT hEGFR ECR; human EGFR ECD; not shown: His6-Avi tag
Briefly: ELISA: WT hEGFR ECR on plate, IgG1 titrated, anti-hFc-HRP; pH 6.5 [table].

A further experiment has as its target hEGFR ECR H433A (human, UniProt P00533 25-642). Briefly: ELISA: hEGFR ECR H433A on plate, IgG1 titrated, anti-hFc-HRP; pH 6.5 and pH 7.4. A general note: An ELISA detects its analyte on a solid surface through an enzyme-linked reagent.
In experiment [2] the target is T1, hEGFR ECR-His6-Avi-Biotin. The experiment can be described thus: ELISA: hEGFR ECR on plate, IgG1 titrated, anti-hFc-HRP; pH 7.4 [left panel].
The target of experiment [3] is T1, hEGFR ECR-His6-Avi-Biotin. The experiment can be described thus: ELISA: hEGFR ECR on plate, IgG1 titrated, anti-hFc-HRP; pH 7.4 [table].
The target in experiment [4] is T2, mEGFR ECR (His6-Avi-tagged) (mouse, UniProt Q01279 25-644).
T2 construct: also called mouse EGFR; not shown: His6-Avi tag
The experiment can be described thus: IgG1 ELISA at pH 6.5, mEGFR ECR against hEGFR ECR.

Experiment [5] has as its target T1, hEGFR ECR-His6-Avi-Biotin. The experiment can be described thus: ELISA: WT hEGFR ECR on plate, IgG1 titrated, anti-hFc-HRP; pH 7.4 [table].
For experiment [6], the target named is T2, mEGFR ECR (His6-Avi-tagged). Briefly: ELISA: mEGFR ECR on plate, IgG1 titrated, anti-hFc-HRP; pH 7.4 [table].
Experiment [7] deals with T1, hEGFR ECR-His6-Avi-Biotin. Briefly: ELISA: WT hEGFR ECR on plate, IgG1 titrated, anti-hFc-HRP; EC50 at pH 7.4 over EC50 at pH 6.5 [table].
The target of experiment [8] is T1, hEGFR ECR-His6-Avi-Biotin. Briefly: ELISA: hEGFR ECR on plate, IgG1 titrated, anti-hFc-HRP; EC50 at pH 7.4 over EC50 at pH 6.5 [table].
In experiment [9] the target is T2, mEGFR ECR (His6-Avi-tagged). Briefly: ELISA: mEGFR ECR on plate, IgG1 titrated, anti-hFc-HRP; EC50 at pH 7.4 over EC50 at pH 6.5 [table].
Experiment [10] concerns the target T3, hEGFR ECR H370A (human, UniProt P00533 25-642). The experiment can be described thus: ELISA: hEGFR ECR H370A on plate, IgG1 titrated, anti-hFc-HRP; EC50 at pH 7.4 over EC50 at pH 6.5 [table].
Experiment [11] concerns the target T3, hEGFR ECR H370A. Briefly: ELISA: hEGFR ECR H370A on plate, IgG1 titrated, anti-hFc-HRP; pH 6.5 [table].
In experiment [12] the target is T1, hEGFR ECR-His6-Avi-Biotin. Briefly: ELISA: hEGFR ECR on plate, IgG1 titrated, anti-hFc-HRP; pH 6.0 [left panel].
In experiment [13] the target is T2, mEGFR ECR (His6-Avi-tagged). Briefly: ELISA: mEGFR ECR on plate, IgG1 titrated, anti-hFc-HRP; pH 6.5 [table].
Experiment [14] has as its target T1, hEGFR ECR-His6-Avi-Biotin. Briefly: ELISA: hEGFR ECR on plate, IgG1 titrated, anti-hFc-HRP; pH 6.5 [table].
Experiment [15] concerns the target T1, hEGFR ECR-His6-Avi-Biotin. The experiment can be described thus: competition ELISA: hEGFR ECR on plate, IgG1 titrated in a mixture with EGF-mFc, bound EGF-mFc detected with anti-mFc-HRP; pH 6.0 [left panel].
Experiment [16] has as its target T3, hEGFR ECR H370A. Briefly: ELISA: hEGFR ECR H370A on plate, IgG1 titrated, anti-hFc-HRP; pH 7.4 [table].
Experiment [17] concerns the target T3, hEGFR ECR H370A. Briefly: IgG1 ELISA, pH 6.5 and pH 7.4 (EC50 ratio pH 7.4/pH 6.5).
Experiment [18] addresses T1, hEGFR ECR-His6-Avi-Biotin. Briefly: ELISA: hEGFR ECR on plate, IgG1 titrated, anti-hFc-HRP; pH 7.4 [table]. This is another data set of the same source.
Experiment [19] has as its target T1, hEGFR ECR-His6-Avi-Biotin. Briefly: ELISA: G5V2 IgG1 coated on plate, antigen titrated, HRP-labeled His-Tag antibody; pH 7.4.
For experiment [20], the target named is T3, hEGFR ECR H370A. Described as above.
Experiment [21] addresses human EGFR domain III (human) (UniProt P00533). The experiment can be described thus: ELISA: antibody coated on plate, hEGFR domain III titrated (Log[Ag] nM), detected through its His tag; pH not given [table].
Experiment [22] concerns the target T1, hEGFR ECR-His6-Avi-Biotin. Briefly: ELISA: hEGFR ECR on plate, IgG1 titrated, anti-hFc-HRP; pH 6.5 [table]. The source holds these as a separate data set.
The target in experiment [23] is T1, hEGFR ECR-His6-Avi-Biotin. The experiment can be described thus: ELISA: hEGFR ECR on plate, IgG1 titrated, anti-hFc-HRP; EC50 at pH 7.4 over EC50 at pH 6.5 [table]. The source holds these as a separate data set.
For experiment [24], the target named is T1, hEGFR ECR-His6-Avi-Biotin. The experiment can be described thus: ELISA: G5V2 IgG1 coated on plate, antigen titrated, HRP-labeled His-Tag antibody; pH 7.4. This is another data set of the same source.
Experiment [25] deals with T1, hEGFR ECR-His6-Avi-Biotin. The experiment can be described thus: ELISA: antibody coated on plate, hEGFR ECR titrated (Log[Ag] nM), detected through its His tag; pH not given [table].
The target in experiment [26] is T1, hEGFR ECR-His6-Avi-Biotin. The experiment can be described thus: phage ELISA: hEGFR ECR on plate, phage display Fab titrated, anti-M13-HRP; EC50 at pH 7.4 over EC50 at pH 6.5 [table].
In experiment [27] the target is T1, hEGFR ECR-His6-Avi-Biotin. The experiment can be described thus: phage display Fab ELISA on hEGFR ECR, pH 6.5.
Experiment [28] concerns the target T1, hEGFR ECR-His6-Avi-Biotin. Briefly: phage display Fab ELISA on hEGFR ECR.
The target in experiment [29] is T1, hEGFR ECR-His6-Avi-Biotin. Briefly: phage display Fab ELISA on hEGFR ECR, pH 6.5 and pH 7.4.

B1: 14C07 (full-length human IgG1 form) (antibody, V domains shown)
VH: QVQLVQSGAEVKRPGSSVKVSCKASGGTFSSYAISWVRQAPGQGLEWMGGIIPIFGTANYAQKFQGRVTITADESTSTAYMELSSLRSEDTAVYYCARDSSSGWYDYFDYWGQGTLVTVSS
VL: QPVLTQPPSVSAAPGAMARITCESPDIGSKSVQWYQQRPGQAPILVIYYDDDRPSGIPERFSGSNSGNTAALTINWVEPEDEADYYCQAWDDSDPVVFGGGTQLTVLG
The EC50 is the concentration giving half of the maximal effect. The low end stands for greater potency, the high end for weaker potency. By IC50 is commonly meant the concentration needed to halve the response being measured. For the molecule B1, the EC50 in experiment [1] came out at 0.301 nM; in experiment [2] it was 0.662 nM; in experiment [3], 0.155 nM; in experiment [5], 0.818 nM; in experiment [6] it was 2.73 nM; in the experiment with hEGFR ECR H370A [11] it was 0.433 nM. Moreover, the EC50 in experiment [12] came to 0.02 nM; in [13], 0.419 nM; in experiment [14], 0.048 nM; in the experiment with hEGFR ECR H370A [16] it was 0.462 nM. For the same molecule, the binding result with hEGFR ECR H433A was “no binding (tested: 100 nM (Log[Ab] 2))”. For the same molecule, the “EC50 ratio, mEGFR/hEGFR (pH 6.5)” value in experiment [4] turned out to be 8.73. The “EC50 ratio (pH 7.4/pH 6.5)” value came to 2.72 in experiment [7], 3.23 in experiment [8], 6.52 in [9] and 1.07 with hEGFR ECR H370A [10]. In addition, the IC50 in experiment [15] turned out to be 29 nM. Besides, the “fold weaker pH-dependency of binding than with WT EGFR ECR” value with hEGFR ECR H370A [17] was > 2 fold.

B2: G5V2 (human IgG1 form) (antibody, V domains shown)
VH: QVQLVQSGAEVKRPGSSVKVSCKASGGISDGSAISWVRQAPGQGLEWMGGIYFFNGNTNYAQKFQGRVTITADESTSTAYMELSSLRSEDTAVYYCARDSSLGYYDYFDYWGQGTLVTVSS
VL: QPVLTQPPSVSAAPGQTARITCGGNNIGEKYVQWYQQRPGQAPVLVIYYDDDRPSGIPERFSGSNSGNTAALTINSVEAGDEADYYCQAWDDYDPVVFGGGTQLTVLG
One may read the EC50 (read off the curve) as the concentration needed to bring the measured effect to its halfway point. Read a high EC50 (read off the curve) as lower potency in that assay. Consider B2, for which the EC50 in [3] was 0.031 nM; in [6], 0.046 nM; in experiment [18] it was 0.595 nM; in experiment [21], 2.37 nM; in [13], 0.037 nM; in experiment [22], 0.502 nM. The EC50 worked out at 0.03 nM in experiment [14] and 1.24 nM in [25]. The “EC50 ratio, mEGFR/hEGFR (pH 6.5)” value in experiment [4] was 1.23. The results for the “EC50 (read off the curve)” value (in experiment [19]; with hEGFR ECR H370A [20]; in experiment [24]) were ~3 nM, ~3 nM and ~2 nM, respectively. Moreover, the “EC50 ratio (pH 7.4/pH 6.5)” value in experiment [8] was 1.03; in experiment [9] it was 1.24; in experiment [23] it was 1.19.

B3: G5V2 Y32E (phage display Fab form) (Fab, V domains shown)
VH: QVQLVQSGAEVKRPGSSVKVSCKASGGISDGSAISWVRQAPGQGLEWMGGIYFFNGNTNYAQKFQGRVTITADESTSTAYMELSSLRSEDTAVYYCARDSSLGYYDYFDYWGQGTLVTVSS
VL: QPVLTQPPSVSAAPGQTARITCGGNNIGEKEVQWYQQRPGQAPVLVIYYDDDRPSGIPERFSGSNSGNTAALTINSVEAGDEADYYCQAWDDYDPVVFGGGTQLTVL
notes: Y32 is Kabat numbering
B3: the “EC50 ratio (pH 7.4/pH 6.5)” value in experiment [26] was found to be 15.6. In experiment [27], the “fold decrease of binding affinity at pH 6.5 against G5V2” value is ~8 fold. The “fold higher binding affinity over G5V2 Y32D” value in experiment [28] was ~3 fold. The “fold higher pH-dependent binding over WT G5V2” value in experiment [29] was ~13 fold.
